This data set can be described thus: protein stability index of a GFP-peptide fusion (GPS, HEK-293T) (PSI 1-6); higher = more stable. The conditions noted are these: c terminus: a fixed tail appended.

± gives the standard deviation.
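Further: 24-mer peptide tiles fused after GFP, lentivirally expressed, FACS-sorted into six equal bins by GFP/DsRed ratio, decoded by Illumina sequencing, PSI is the read-weighted mean bin number.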

On to LPTLVPWYFWGETFQNSVFVATFL [SCD], for which the protein stability index is 3.15 ± 0.076 (treatment: DMSO) and 3.09 ± 0.35 (treatment: MLN4924 1 uM, 8 h).
On the same counts, the results for LPYQHFSAHFTSGPLVPRLAGMAN [TBX5] are 2.7 ± 0.27 and 2.56 ± 0.11.
With LQGLSLIVTWFMLLYAQGLLAIQF [SLC19A2], the protein stability index runs as follows: (treatment: DMSO) 3.16 ± 0.26; (treatment: MLN4924 1 uM, 8 h) 3.16 ± 0.26.
As to LQHAVELKPLCGCHSFAAAADGPT [SMAD6], the protein stability index by setting is: (treatment: DMSO) 3.16 ± 0.21; (treatment: MLN4924 1 uM, 8 h) 3.17 ± 0.28.
For LQLGAAKKPPVTFAEKGELRKSIF [TRIM29] the same measures were 3.14 ± 0.16 and 3.25 ± 0.21.
For LQQERQRLGQRQPPPSEPTQGPEI [DNAJC4] the same measures were 5.52 ± 0.16 and 5.16 ± 0.081.
On the same counts, the results for LQQQNEDLKARIDQNTVVTRQLSE [MTUS2] are 5.1 ± 0.26 and 5.21 ± 0.083.
On to LQRLKEQQFVIAGVLVEDSNNHHL [ZBED1], for which the protein stability index is, setting by setting: (treatment: DMSO) 2.83 ± 0.085; (treatment: MLN4924 1 uM, 8 h) 3.02 ± 0.27.
On the same counts, the results for LQRVLEHRRRNQLIKKKKEELEAK [FAM107A] are 3.49 ± 0.29 and 3.81 ± 0.5.
For LRDKTVMIIVAISPKYKQDVEGAE [TRAF3IP2] the same measures were 2.4 ± 0.047 and 2.97 ± 0.69.
For LREIAFTRQLHEKTSQLSYYYMGF [ATE1] the same measures were 2.31 ± 0.35 and 2.34 ± 0.24.
Take LREINFKIVEFNPMVLKGKIRPDS [GLT8D2]: the protein stability index is, setting by setting: (treatment: DMSO) 2.39 ± 0.34; (treatment: MLN4924 1 uM, 8 h) 2.41 ± 0.41.
On the same counts, the results for LREMCALSFQEELLYWGIAEDHLD [KCNG1] are 2.27 ± 0.27 and 2.26 ± 0.22.
Consider LRHLELLDEFARENIDSLYNVNLS [SCNN1D], for which the protein stability index amounted to 2.66 ± 0.092 (treatment: DMSO) and 2.94 ± 0.34 (treatment: MLN4924 1 uM, 8 h).
For LRRELELLGRERDRVQVERDGLAE [PRPH] the same measures were 4.6 ± 0.49 and 4.8 ± 0.36.
On the same counts, the results for LRSQLQTLKQQHQQAVEQIAKAEE [CCDC89] are 4.66 ± 0.15 and 4.76 ± 0.11.
For LRTLFTDLFEKKGYTFDYAYDWVG [CSNK1G1], the protein stability index amounted to 2.2 ± 0.21 (treatment: DMSO) and 2.12 ± 0.39 (treatment: MLN4924 1 uM, 8 h).
With LRVSPAEQPRLEFLMRKCGWFVRE [FBXO33], the protein stability index (treatment: DMSO) was 1.97 ± 0.12 and the protein stability index (treatment: MLN4924 1 uM, 8 h) was 2.08 ± 0.38.
Regarding LSDDYEQVRSAAVQLIWVVSQLYP [INTS4], the protein stability index (treatment: DMSO) was 2.08 ± 0.43 and the protein stability index (treatment: MLN4924 1 uM, 8 h) amounted to 2.13 ± 0.45.
On the same counts, the results for LSEEEKEELKAELVQLEDEITTLR [TPD52L1] are 5.03 ± 0.17 and 5.2 ± 0.19.
For LSEGCRAELAETIVYARVLALHPE [CCDC3] the same measures were 2.92 ± 1.4 and 1.83 ± 0.38.
For LSLLVMVISPVIQLQPTFTPMRVA [NSDHL] the same measures were 3.08 ± 0.32 and 3.23 ± 0.087.
With LSPALDLQAESPPVDPDSQADTVH [DNAAF3], the protein stability index runs as follows: (treatment: DMSO) 5.48 ± 0.41; (treatment: MLN4924 1 uM, 8 h) 5.46 ± 0.21.
On the same counts, the results for LSRKVAELVHFLLLKYRAREPVTK [MAGEA3] are 2.97 ± 0.42 and 2.44 ± 0.43.
On the same counts, the results for LSVTISFRIYKSVIQAVQKSEEGH [RTN3] are 3.26 ± 0.61 and 3 ± 0.42.
On the same counts, the results for LTEASAHSHPPEIKDQGGAGEGLV [MAP2] are 5.57 ± 0.15 and 5.56 ± 0.2.
For LTKFLEEHPGGEEVLREQAGGDAT [CYB5A], the protein stability index amounted to 5.44 ± 0.24 (treatment: DMSO) and 5.44 ± 0.26 (treatment: MLN4924 1 uM, 8 h).
On to LTLKVLRSSSCGDTELLGQATLPV [C2CD2L], for which the protein stability index by setting is: (treatment: DMSO) 2.16 ± 0.73; (treatment: MLN4924 1 uM, 8 h) 2.33 ± 0.34.
On the same counts, the results for LVDMDMADYSAALDPAYTTLEFEN [HNF4A] are 4.24 ± 0.19 and 4.35 ± 0.054.
For LVITDFFGHLINGAIAVFVYASDK [PTGFR] the same measures were 3.39 ± 0.23 and 3.56 ± 0.49.
For LVNDDDEEADDTRYTQGTGGDEVD [ZC3H15] the same measures were 5.43 ± 0.31 and 5.67 ± 0.23.
Take LVPFVGKVHIGYLPNKQVLGLSKL [GCH1]: the protein stability index by setting is: (treatment: DMSO) 2.78 ± 0.19; (treatment: MLN4924 1 uM, 8 h) 2.06 ± 0.37.
On the same counts, the results for LVVIQQPSLDSRQRLDYEREIQPT [SPRY1] are 2.96 ± 0.2 and 3.1 ± 0.11.
For LVYDVEVKSHLLDYVMTTLLFSDK [TRIP13] the same measures were 2.9 ± 0.45 and 2.92 ± 0.47.
With LWILHLLLECYIQYHHSKIRNRGY [TMEM192], the protein stability index by setting is: (treatment: DMSO) 2.61 ± 0.51; (treatment: MLN4924 1 uM, 8 h) 2.49 ± 0.32.
On the same counts, the results for LYAVGGQDGVSCLNIVERYDPKEN [KLHL20] are 3.89 ± 0.31 and 3.96 ± 0.27.
Take LYILGNFMQLKCFSSQKLKCLSMF [PNLIPRP1]: the protein stability index (treatment: DMSO) came out at 3.67 ± 0.66 and the protein stability index (treatment: MLN4924 1 uM, 8 h) came to 3.46 ± 0.73.
For LYYYMTQTEELKYSIDQEFLKEYF [NLN] the same measures were 2.74 ± 0.85 and 2.39 ± 0.62.
For the sequence MCNVKAPLGSPSPRPRRAKRFASL [ADAMTS4], the protein stability index worked out at 3.69 ± 0.26 (treatment: DMSO) and 3.77 ± 0.21 (treatment: MLN4924 1 uM, 8 h).
On the same counts, the results for MDGESEEEQESVDTGEEEEGGDES [EHMT1] are 5.66 ± 0.15 and 5.51 ± 0.16.
The sequence MDVSREEAPQWLESDSCQKCEQPF [WDFY1] had a protein stability index (treatment: DMSO) of 4.89 ± 0.17 and a protein stability index (treatment: MLN4924 1 uM, 8 h) of 4.92 ± 0.32.
Turning to MGGHHPGADYPVDGLPDLGHAQDL [CTNNB1], the protein stability index came to 5.03 ± 0.25 (treatment: DMSO) and 5.03 ± 0.3 (treatment: MLN4924 1 uM, 8 h).
For MGPAQEAPVAEAWIPQAGPPELNY [ZNF449] the same measures were 4.46 ± 0.27 and 4.51 ± 0.17.
Take MHVACQHGQENIVRILLRRGVDVS [RIPK4]: the protein stability index (treatment: DMSO) turned out to be 2.29 ± 0.32 and the protein stability index (treatment: MLN4924 1 uM, 8 h) was determined as 2.24 ± 0.45.
On the same counts, the results for MLEKMDLKEFDLDALLGIDDLETM [ATF4] are 3.85 ± 0.14 and 3.87 ± 0.26.
On the same counts, the results for MLGLALGGLVVSAASLAGCLGALC [TSPAN10] are 3.15 ± 0.55 and 3.04 ± 0.37.
For MLIFSLALEEPEKMGLQERSETFL [DNAAF3] the same measures were 2.18 ± 0.32 and 2.38 ± 0.12.
The sequence MMELGSRSRGASQKKQKLEQKAAG [FATE1] came in with a protein stability index (treatment: DMSO) of 4.76 ± 0.19 and a protein stability index (treatment: MLN4924 1 uM, 8 h) of 4.87 ± 0.49.
MNLHVYISEHEHFTDFNATSALFW [CLPTM1] registered a protein stability index (treatment: DMSO) of 2.94 ± 0.5 and a protein stability index (treatment: MLN4924 1 uM, 8 h) of 2.79 ± 0.39.
For MRPWTGSWRWIMLILFAWGTLLFY [FUT8] the same measures were 3.24 ± 0.16 and 3 ± 0.092.
For MVEADHPGKLFIGGLNRETNEKML [RBMY1A1] the same measures were 3.91 ± 0.23 and 3.92 ± 0.093.
MVKIFRLLPTKSLVALKCTCCYFK [FBXO34]: the protein stability index by setting is: (treatment: DMSO) 3.18 ± 0.48; (treatment: MLN4924 1 uM, 8 h) 2.71 ± 0.69.
For NALTLTFQRAMHDYNQAEMKQRDN [STX11] the same measures were 3.54 ± 0.15 and 3.68 ± 0.12.
On the same counts, the results for NCEQLCVNVPGSFVCQCYSGYALA [MATN2] are 2.16 ± 0.55 and 2.34 ± 0.53.
For NESTVCLMSYERRQILHLITMMAL [TENT5D] the same measures were 2.3 ± 0.47 and 2.1 ± 0.2.
As to NFADEDEAQAFRALVQEKIQKRNQ [WAS], the protein stability index by setting is: (treatment: DMSO) 4.55 ± 0.29; (treatment: MLN4924 1 uM, 8 h) 4.62 ± 0.3.
For NFCEPQDYRPMNHEAFKDELKTFR [CDC25B] the same measures were 4.04 ± 0.085 and 4.15 ± 0.25.
On the same counts, the results for NFIREQDLYALKSVKIPVRNHGIL [LYSMD4] are 2.27 ± 0.076 and 2.35 ± 0.37.
On to NFYYFSLIPKTWYSAEQFCVSRNS [CD207], for which the protein stability index runs as follows: (treatment: DMSO) 2.6 ± 0.53; (treatment: MLN4924 1 uM, 8 h) 2.3 ± 0.45.
In the case of NGLNARMMHGGSYSLTTSSTHKRS [RAB40B], the protein stability index is 4.28 ± 0.12 (treatment: DMSO) and 4.34 ± 0.19 (treatment: MLN4924 1 uM, 8 h).
On the same counts, the results for NGPDCGYGSFHQQYWLDGKIIAVG [ATE1] are 2.35 ± 0.42 and 2.26 ± 0.26.
In the case of NGVLLCFYSQEWYARQHCPLKNPT [SOAT1], the protein stability index came out at 2.81 ± 0.31 (treatment: DMSO) and 2.6 ± 0.57 (treatment: MLN4924 1 uM, 8 h).
On the same counts, the results for NHLLHHFVIGHLKGAPASWWNHMH [FADS1] are 2.36 ± 0.56 and 2.31 ± 0.34.
On to NIGDSSSGLIQTVFISSYMVLAPV [SPNS1], for which the protein stability index is 3.12 ± 0.32 (treatment: DMSO) and 2.67 ± 0.38 (treatment: MLN4924 1 uM, 8 h).
In the case of NKQGHGCESDIWALGCVMYTMLLG [PLK2], the protein stability index was found to be 2.87 ± 0.58 (treatment: DMSO) and 2.54 ± 0.064 (treatment: MLN4924 1 uM, 8 h).
On the same counts, the results for NLDEEMKKIRQVIRKYNYVAMDTE [CNOT7] are 3.47 ± 0.14 and 3.38 ± 0.22.
On the same counts, the results for NLFFAWIKIFKYISFNKTMTQLSS [PKD2L1] are 3.05 ± 0.49 and 2.99 ± 0.44.
For NPEEIRGGGLLKYSNLLVRDFRPT [TENT5C] the same measures were 3.04 ± 0.3 and 3.14 ± 0.31.
On to NPFAKGFRENGRNCKRERDARVKR [TBX6], for which the protein stability index was found to be 4.1 ± 0.24 (treatment: DMSO) and 4.09 ± 0.36 (treatment: MLN4924 1 uM, 8 h).
NPFYHCLVAEILPAPGKLLGPCVV [SAT2]: the protein stability index (treatment: DMSO) was found to be 3.16 ± 0.97 and the protein stability index (treatment: MLN4924 1 uM, 8 h) came to 3.07 ± 1.2.
For NPQENRWHTIAPMGTRRKHLGCAV [KLHL20], the protein stability index (treatment: DMSO) came to 3.1 ± 0.13 and the protein stability index (treatment: MLN4924 1 uM, 8 h) was 3.11 ± 0.095.
Consider NQKLFDLRGKFKRPPLRRVRMSAD [TNNI2], for which the protein stability index (treatment: DMSO) is 3.17 ± 0.21 and the protein stability index (treatment: MLN4924 1 uM, 8 h) was 3.51 ± 0.26.

The record behind these values is the supplement of paper PMC10567573.
